Measurements as given in the supplement of paper PMC9170038.

Test system: MS2 coat protein
Experiment: apparent KD of MS2 coat protein; designed switch direction (-1 OFF switch, 1 ON switch): -1; higher = weaker reporter binding
Procedure, shortened: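 On Illumina chips, designed RNA switches with common flanks were made by stalled E. coli RNA polymerase. Titrations with SNAP-549-labelled MS2 coat protein, doubling from 0.7 or 1.5 nM to 3 µM, were done with no input, with 200 uM small-molecule ligand, or with an oligonucleotide input. Apparent KD is the median per design over clusters, from curve fits of normalised cluster fluorescence.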

[1] = input ligand: microRNA oligo, concentration not stated
[2] = Eterna round: R95, input ligand: FMN 200 uM
[3] = Eterna round: R95, input ligand: microRNA oligo, concentration not stated
[4] = Eterna round: R95, input ligand: none

Sequence: UAGCAUUGCCUUUGGUAGUGCUUUACAUGAGGAUCACCCAUGUAGGAUAUGGUCGGCUUUGCUGACCAGAAGGACAUGUGUAUU [MOD ENG3 1.04 by JL] (Eterna round: R96, puzzle: Exclusion NG 3)
- apparent KD of MS2 coat protein (input ligand: FMN 200 uM): 130 nM
- apparent KD of MS2 coat protein [1]: 94.4 nM
- apparent KD of MS2 coat protein (input ligand: none): 80.7 nM

Sequence: UUGUUGUAUGUAGGAUAUGCAUAUUAUUAUUGUGCAGAAGGACAUGAGGAUCACCCAUGUAUAUUAUUAUUAUAUGUUAUAUAU [Title] (Eterna round: R96, puzzle: Exclusion NG 1)
- apparent KD of MS2 coat protein [1]: 22.1 nM

Sequence: CUCAUGUGAGGAUAUGUGCUGAUCUGUACUGUGAUUAGAGAACAGAAGGUACAUGAGGAUCACCCAUGUACACG [Eternabot (L2) Solution 46] (Eterna round: R97, puzzle: Exclusion 4)
- apparent KD of MS2 coat protein (input ligand: FMN 200 uM): 354 nM
- apparent KD of MS2 coat protein (input ligand: none): 14.7 nM

Sequence: UAUGGUUAAGUCAGGAUAUGCACGCAGAGAACAAAGCAGAAGGGACAUGAGGAUCACCCAUGUAAAGUCGUGUU [Ex4 #77] (Eterna round: R97, puzzle: Brourd's mod of Exclusion 4)
- apparent KD of MS2 coat protein (input ligand: FMN 200 uM): 31.2 nM
- apparent KD of MS2 coat protein (input ligand: none): 23 nM

Sequence: AGUACUAACUCGAUAGUGUUAGUACAAUAAGCUUGUGAAACAUGAGGAUCACCCAUGUCCUCAUAAGCUCGUCUUAU [salish99_TOv2_r3_1004] (puzzle: Sensor v3, turn-off variant 2)
- apparent KD of MS2 coat protein [2]: 16.9 nM
- apparent KD of MS2 coat protein [3]: 726 nM
- apparent KD of MS2 coat protein [4]: 15.4 nM

Sequence: AAGAAACAUGAGGAUCACCCAUGUGAGGAUAUGCAAGAAAGAAAGAAAGAAAGAAGAAGCAGAAGGCACAAAGG [Gaius Turranius] (Eterna round: R96, puzzle: Exclusion 1)
- apparent KD of MS2 coat protein (input ligand: FMN 200 uM): 84.7 nM
- apparent KD of MS2 coat protein [1]: 29.7 nM
- apparent KD of MS2 coat protein (input ligand: none): 50.7 nM

Sequence: AGAUGGCGAGGAUAUACAUGAGGAUCACCCAUGUGAGAUAAUAAAGUGAGGAAGAAAAGUAGAAGGCGCUGUCA [Mat - Exclusion 3 - Mod of Salish D13] (puzzle: Exclusion 3)
- apparent KD of MS2 coat protein [2]: 221 nM
- apparent KD of MS2 coat protein [3]: 53.7 nM
- apparent KD of MS2 coat protein [4]: 56.8 nM

Sequence: ACUCGCACUGUAAGGAUAUGCAAUUACGAAAGUGAGCAGAAGGUACAUGAGGAUCACCCAUGUGCGAAUCAGUG [Eternabot (Original) Solution 36] (Eterna round: R97, puzzle: Brourd's mod of Exclusion 4)
- apparent KD of MS2 coat protein (input ligand: FMN 200 uM): 18.9 nM
- apparent KD of MS2 coat protein (input ligand: none): 20 nM

Sequence: GUCAUCUAUCAUGGGAUAAACAUGAGGAUCACCCAUGUAUACAAGUUUUUUGCUCGUCUUAUAAUAAGAUAGAUGAC [Antenna 4 - Jieux - Sensor, turn-off variant 1] (Eterna round: R97, puzzle: Sensor, turn-off variant 1)
- apparent KD of MS2 coat protein (input ligand: FMN 200 uM): 16.6 nM
- apparent KD of MS2 coat protein (input ligand: none): 16.1 nM

Sequence: GUCAUCACACAUGGGAUCAACAUGAGGAUCACCCAUGUUGCCAAGUUGUUUGCACGUCUUAUAAUACGUUUUUCGAG [Mod-Jxg] (Eterna round: R97, puzzle: Sensor, turn-off variant 1)
- apparent KD of MS2 coat protein (input ligand: FMN 200 uM): 21.6 nM
- apparent KD of MS2 coat protein (input ligand: none): 28.2 nM

Sequence: UAGAAACAUGAGGAUCACCCAUGUGAGGAUAUGAAAAAGAAAAGAAAAGAAAGAAGAAUCAGAAGGCACAAAGU [salish99-ex1_r3_087] (puzzle: Exclusion 1)
- apparent KD of MS2 coat protein [2]: 30.5 nM
- apparent KD of MS2 coat protein [3]: 27.2 nM
- apparent KD of MS2 coat protein [4]: 32.3 nM

Sequence: AUAAAACAUGAGGAUCACCCAUGUCAGGAUAUACGACUCCAACCUAACAGCUUGGACCGUAGAAGGGACAAGGG [Exclusion 1 (MOD2.2 Esqu)] (Eterna round: R97, puzzle: Exclusion 1)
- apparent KD of MS2 coat protein (input ligand: FMN 200 uM): 91.6 nM
- apparent KD of MS2 coat protein (input ligand: none): 109 nM

Sequence: CCGGAUAUGCAGGAUAUCGAAUCGGAAACGAUUCGAGAAGGGUAUACAUGAGGAUCACCCAUGUGUCCUACCGG [Mat - Exclusion 6 - Eli Mod - D87] (puzzle: Exclusion 6)
- apparent KD of MS2 coat protein [3]: 19.4 nM

Sequence: GGUACACAUGAGGAUCACCCAUGUCAGGAUAUCUGGAUACUCUUUAUUUUAGAUAUCCAGAGAAGGGACGUGCC [Ex1-3: 9Z] (puzzle: Exclusion 1)
- apparent KD of MS2 coat protein [3]: 29.7 nM

Sequence: UUUAUAUAGUAAGGAUAUGUAUUAUUUCUAUCAACAGAAGGUACUGACAUGAGGAUCACCCAUGUUUUAGUGUGGGCAUGUAGU [JMF's solution 97] (Eterna round: R96, puzzle: Exclusion NG 1)
- apparent KD of MS2 coat protein [1]: 200 nM

Sequence: GUGUGUGAUGUAGGAUAUACGAGACAUGAGGAUCACCCAUGUGAGGGAAGGAGAAGGAGAAGAGAGUAGAAGGAUAGAGUGUGA [Default title] (Eterna round: R96, puzzle: Exclusion NG 2)
- apparent KD of MS2 coat protein (input ligand: FMN 200 uM): 133 nM
- apparent KD of MS2 coat protein [1]: 144 nM
- apparent KD of MS2 coat protein (input ligand: none): 131 nM

Sequence: ACGCACACGCACGCACGCACACAUGAGGAUCACCCAUGUAAUUAGGAUAUAUUGAAGAACAGAGAAUAGAAGGAAUUACUCAUG [Default title] (Eterna round: R96, puzzle: Exclusion NG 3)
- apparent KD of MS2 coat protein (input ligand: FMN 200 uM): 105 nM
- apparent KD of MS2 coat protein [1]: 88 nM
- apparent KD of MS2 coat protein (input ligand: none): 70.7 nM
